From patent publication US20260034234A1 (AGENSYS, published 2026)

Experiments:
[1] = target: T1, Rat 191P4D12 (on PC3 cells) (rat, UniProt D3ZET1 31-509); test: FACS saturation binding on PC3-rat-191P4D12 cells
T1 construct: whole, on cells; also called PC3-rat-191P4D12; Rat ortholog
T1 sequence: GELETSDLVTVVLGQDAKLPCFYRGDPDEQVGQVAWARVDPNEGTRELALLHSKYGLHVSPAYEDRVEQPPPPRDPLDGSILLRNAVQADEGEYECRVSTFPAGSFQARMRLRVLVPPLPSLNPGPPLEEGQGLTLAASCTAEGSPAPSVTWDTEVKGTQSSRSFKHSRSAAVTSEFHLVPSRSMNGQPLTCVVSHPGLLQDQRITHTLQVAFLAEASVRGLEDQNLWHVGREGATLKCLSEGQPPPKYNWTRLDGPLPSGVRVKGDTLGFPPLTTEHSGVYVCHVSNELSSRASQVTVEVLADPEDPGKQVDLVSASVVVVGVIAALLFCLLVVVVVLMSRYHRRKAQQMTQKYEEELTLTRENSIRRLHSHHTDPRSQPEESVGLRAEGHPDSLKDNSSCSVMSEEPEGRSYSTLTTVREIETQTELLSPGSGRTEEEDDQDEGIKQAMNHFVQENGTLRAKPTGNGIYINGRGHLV
Protocol: (§1) Ha22-2(2,4)6.1vcMMAE was tested for its binding affinity to 191P4D12 expressed on the surface of PC3-human-191P4D12, PC3-Cynomolgus-191P4D12, and PC3-rat-191P4D12 cells respectively. Briefly, eleven (11) dilutions of Ha22-2(2,4)6.1vcMMAE were incubated with each of the cell types (50,000 cells per well) overnight at 4° C. at a final concentration of 160 nM to 0.011 nM. At the end of the incubation, cells are washed and incubated with anti-hIgG-PE detection antibody for 45 min at 4° C. After washing the unbound detection antibodies, the cells are analyzed by FACS. MFI values were entered into Graphpad Prisim software and analyzed using the one site binding (hyperbola) equation of Y=Bmax*X/(Kd+X) to generate Ha22-2(2,4)6.1vcMMAE saturation curves shown also in FIGS. 6-8 respectively. Bmax is the MFI value at maximal binding of Ha22-2(2,4)6.1vcMMAE to 191P4D12; Kd is the Ha22-2(2,4)6.1vcMMAE binding affinity which is the concentration of Ha22-2(2,4)6.1vcMMAE required to reach half-maximal binding.

[2] = target: T2, purified recombinant 191P4D12 (ECD amino acids 1-348) (human, UniProt Q96NY8 32-348); test: SPR (Biacore), ADC captured by anti-human Fc, 191P4D12 ECD as analyte
T2 construct: Range as printed
T2 sequence: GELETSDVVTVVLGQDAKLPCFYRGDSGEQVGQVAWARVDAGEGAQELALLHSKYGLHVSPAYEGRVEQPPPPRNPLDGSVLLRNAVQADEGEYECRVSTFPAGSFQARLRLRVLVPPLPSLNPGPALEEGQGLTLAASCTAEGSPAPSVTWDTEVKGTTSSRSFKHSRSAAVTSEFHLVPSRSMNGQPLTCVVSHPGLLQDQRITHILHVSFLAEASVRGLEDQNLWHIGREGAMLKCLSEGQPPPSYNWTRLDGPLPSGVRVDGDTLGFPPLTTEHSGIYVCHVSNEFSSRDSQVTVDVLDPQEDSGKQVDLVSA
Protocol: The affinity of Ha22-2(2,4)6.1 MAb and Ha22-2(2,4)6.1vcMMAE to purified recombinant 191P4D12 (ECD amino acids 1-348) was performed by Surface Plasmon Resonance (SPR) (BIAcore). Briefly, goat-anti-human Fcγ polyclonal Abs (Jackson Immuno Research Labs, Inc.) were covalently immobilized on the surface of a CM5 sensor chip (Biacore). Purified Ha22-2(2,4)6.1 MAb or Ha22-2(2,4)6.1vcMMAE were then captured on the surface of said chip. On average, approximately 300 RUs of test Ha22-2(2,4)6.1 MAb or Ha22-2(2,4)6.1vcMMAE was captured in every cycle. Subsequently, a series of five (5) to six (6) dilutions of recombinant 191P4D12 (ECD amino acids 1-348) ranging from 1 nM to 100 nM was injected over such surface to generate binding curves (sensograms) that were processed and globally fit to a 1:1 interaction model using BIAevaluation 3.2 and CLAMP software (Myszka and Morton, 1998) (FIG. 22). Table V summarizes association and dissociation rate constants as well as affinities of Ha22-2(2,4)6.1 MAb and Ha22-2(2,4)6.1 vcMMAE to recombinant 191P4D12 (ECD amino acids 1-348).

[3] = target: T3, Cynomolgus 191P4D12 (on PC3 cells) (cynomolgus monkey, UniProt A0A2K5WES1 32-510); test: FACS saturation binding on PC3-Cynomolgus-191P4D12 cells
T3 construct: also called PC3-Cynomolgus-191P4D12; Cyno ortholog
T3 sequence: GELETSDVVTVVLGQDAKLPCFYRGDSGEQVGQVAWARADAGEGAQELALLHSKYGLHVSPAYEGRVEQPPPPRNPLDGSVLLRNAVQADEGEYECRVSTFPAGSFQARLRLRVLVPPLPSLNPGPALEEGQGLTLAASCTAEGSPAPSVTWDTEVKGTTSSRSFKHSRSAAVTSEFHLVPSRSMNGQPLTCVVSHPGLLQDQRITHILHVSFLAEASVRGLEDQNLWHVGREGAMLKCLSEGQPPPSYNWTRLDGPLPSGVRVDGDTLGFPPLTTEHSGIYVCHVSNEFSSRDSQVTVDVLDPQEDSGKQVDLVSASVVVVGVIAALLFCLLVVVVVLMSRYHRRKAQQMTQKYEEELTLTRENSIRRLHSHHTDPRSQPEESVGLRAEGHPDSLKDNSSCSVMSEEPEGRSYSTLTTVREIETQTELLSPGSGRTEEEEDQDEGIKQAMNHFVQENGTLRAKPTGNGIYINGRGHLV
Protocol: as §1

[4] = target: T4, 191P4D12 (human, wild type, on cells) (human, UniProt Q96NY8 32-510); test: FACS saturation binding on PC3-human-191P4D12 cells
T4 construct: 510 amino acid ORF expressed on PC3, RAT/Rat1(E) cells and present in cancer cell lines and tumor specimens; also called human 191P4D12; wild-type 191P4D12
T4 sequence: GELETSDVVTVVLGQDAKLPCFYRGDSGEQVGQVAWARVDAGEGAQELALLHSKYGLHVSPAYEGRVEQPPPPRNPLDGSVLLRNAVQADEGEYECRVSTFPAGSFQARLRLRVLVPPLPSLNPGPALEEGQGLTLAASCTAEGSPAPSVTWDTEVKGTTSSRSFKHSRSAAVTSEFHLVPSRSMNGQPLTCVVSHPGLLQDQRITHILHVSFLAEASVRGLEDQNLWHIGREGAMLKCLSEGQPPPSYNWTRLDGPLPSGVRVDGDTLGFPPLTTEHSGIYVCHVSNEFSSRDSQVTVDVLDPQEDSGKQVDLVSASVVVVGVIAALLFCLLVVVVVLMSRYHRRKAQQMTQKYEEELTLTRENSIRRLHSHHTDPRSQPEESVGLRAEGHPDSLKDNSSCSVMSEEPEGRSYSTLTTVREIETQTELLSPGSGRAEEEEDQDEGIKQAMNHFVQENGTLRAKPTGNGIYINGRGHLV
Protocol: as §1

Kd [1]: 1.6 nM
Kd [2]: 11 nM
koff [2]: 0.0052 s⁻¹
kon [2]: 450000 M⁻¹ s⁻¹
Kd [3]: 0.34 nM
Kd [4]: 0.69 nM
B1: Ha22-2(2,4)6.1vcMMAE (antibody, human IgG1, kappa, V domains shown)
VH: EVQLVESGGGLVQPGGSLRLSCAASGFTFSSYNMNWVRQAPGKGLEWVSYISSSSSTIYYADSVKGRFTISRDNAKNSLSLQMNSLRDEDTAVYYCARAYYYGMDVWGQGTTVTVSS
VL: DIQMTQSPSSVSASVGDRVTITCRASQGISGWLAWYQQKPGKAPKFLIYAASTLQSGVPSRFSGSGSGTDFTLTISSLQPEDFATYYCQQANSFPPTFGGGTKVEIKR
modifications: vcMMAE (Val-Cit linker, MMAE) on cysteine thiols after partial TCEP reduction, positions not given; p about 3.8 drugs per antibody
notes: also called Ha22-2(2,4)6.1ADC
